± gives the standard deviation.
Test: collision cross section of modified peptide (TIMS, N2, iRT-aligned); higher = larger / more extended gas-phase ion
In short: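 Values are averages of 1–3 technical replicates of the most abundant feature for each charge state. Collision cross section was obtained from the Mason-Schamp equation after 1/K0 calibration with three reference ions and run-wise alignment to the median iRT peptide deviation. Synthetic peptide pools (iRT standard spiked 1:40) were separated on a 120-min nanoflow C18 gradient at 60 °C, analysed on a timsTOF Pro/HT (dda-PASEF, nitrogen, ~2.4 mbar) and identified with MaxQuant.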

[1] = charge state: 3, modification: Trimethyl (K)
[2] = charge state: 2, modification: Butyryl
[3] = charge state: 3, modification: Butyryl
[4] = charge state: 2, modification: Succinyl
[5] = charge state: 2, modification: Biotin
[6] = charge state: 2, modification: Phospho (Y)
[7] = charge state: 2, modification: Dimethyl (K)
[8] = charge state: 3, modification: Dimethyl (K)
[9] = charge state: 2, modification: hydroxyisobutyryl
[10] = charge state: 3, modification: hydroxyisobutyryl
[11] = charge state: 2, modification: Propionyl
[12] = charge state: 2, modification: Nitro (Y)
[13] = charge state: 3, modification: Succinyl
[14] = charge state: 2, modification: Acetyl (K)
[15] = charge state: 2, modification: Citrullination (R)
[16] = charge state: 3, modification: Citrullination (R)
[17] = charge state: 3, modification: Hydroxyproline
[18] = charge state: 2, modification: Hydroxyproline
[19] = charge state: 2, modification: Crotonyl
[20] = charge state: 2, modification: Methyl (K)
[21] = charge state: 3, modification: Methyl (K)
[22] = charge state: 2, modification: GlyGly (K)
[23] = charge state: 3, modification: GlyGly (K)
[24] = charge state: 2, modification: Malonyl
[25] = charge state: 2, modification: Glutarylation
[26] = charge state: 3, modification: Malonyl
[27] = charge state: 3, modification: Methyl (R)
[28] = charge state: 3, modification: HexNAc (ST)
[29] = charge state: 3, modification: Acetyl (K)
[30] = charge state: 3, modification: Glutarylation
[31] = charge state: 2, modification: HexNAc (ST)

IINEPTAAAIAYGLDKK [_IINEPTAAAIAYGLDK(Trimethyl (K))K_]
collision cross section (charge state: 2, modification: Trimethyl (K)): 500.2 ± 1.5 Å²
collision cross section [1]: 559.85 ± 0.91 Å²

DAEAAEATAEGALKAEK [_DAEAAEATAEGALK(Butyryl)AEK_]
collision cross section [2]: 461.9 ± 22 Å²
collision cross section [3]: 544.71 ± 2 Å²

IGNSYFKEEK [_IGNSYFK(Succinyl)EEK_]
collision cross section [4]: 382.2 ± 0.76 Å²

SDSGKPYYYNSQTK [_SDSGK(Biotin)PYYYNSQTK_]
collision cross section [5]: 440.01 ± 0.23 Å²

GHYTIGK [_GHY(Phospho (Y))TIGK_]
collision cross section [6]: 330.16 ± 0.068 Å²

DDSFLGKLGGTLAR [_DDSFLGK(Dimethyl (K))LGGTLAR_]
collision cross section [7]: 416.68 ± 0.75 Å²
collision cross section [8]: 473.5 ± 1.2 Å²

GFALVGVGSEASSKK [_GFALVGVGSEASSK(hydroxyisobutyryl)K_]
collision cross section [9]: 419.49 ± 2.2 Å²
collision cross section [10]: 502.54 ± 2.1 Å²

IVFSGNLFQHQEDSKK [_IVFSGNLFQHQEDSK(hydroxyisobutyryl)K_]
collision cross section [9]: 503.66 ± 0.71 Å²
collision cross section [10]: 534.25 ± 1.1 Å²

LQDVSGQLSSSKK [_LQDVSGQLSSSK(hydroxyisobutyryl)K_]
collision cross section [9]: 404.16 ± 0.3 Å²
collision cross section [10]: 470.99 ± 5.5 Å²

DLGKFQVATDALK [_DLGK(Propionyl)FQVATDALK_]
collision cross section [11]: 407.94 Å²

IHNAENIQPGEQKYEYK [_IHNAENIQPGEQK(hydroxyisobutyryl)YEYK_]
collision cross section [9]: 491.39 ± 0.68 Å²
collision cross section [10]: 532.88 ± 2 Å²

LTEKELAEAASK [_LTEK(Propionyl)ELAEAASK_]
collision cross section [11]: 389.08 ± 0.49 Å²

AGPNASIISLKSDK [_AGPNASIISLK(Succinyl)SDK_]
collision cross section [4]: 414.91 ± 0.86 Å²

GVQYLNEIK [_GVQY(Nitro (Y))LNEIK_]
collision cross section [12]: 353.34 ± 0.19 Å²

LQDVSGQLSSSKK [_LQDVSGQLSSSK(Succinyl)K_]
collision cross section [4]: 402.37 ± 0.79 Å²
collision cross section [13]: 468.7 ± 14 Å²

VFSIISSEKELK [_VFSIISSEK(Biotin)ELK_]
collision cross section [5]: 432.12 ± 1.1 Å²

ASNAAVKLAESK [_ASNAAVK(Acetyl (K))LAESK_]
collision cross section [14]: 371.36 ± 0.81 Å²

GSYLGGYSAGRGIYSR [_GSYLGGYSAGR(Citrullination (R))GIYSR_]
collision cross section [15]: 429.9 ± 0.2 Å²
collision cross section [16]: 475.97 ± 0.76 Å²

DASTLQSQKAEGTGDAK [_DASTLQSQK(Propionyl)AEGTGDAK_]
collision cross section [11]: 434.77 ± 2.9 Å²

GPPGPPGRPGNSGIR [_GPPGPPGRP(Hydroxyproline)GNSGIR_]
collision cross section [17]: 429.49 ± 1.3 Å²

GQQGEPGPK [_GQQGEP(Hydroxyproline)GPK_]
collision cross section [18]: 313.43 ± 0.56 Å²

GETASKLQSEISR [_GETASK(Trimethyl (K))LQSEISR_]
collision cross section [1]: 463.43 ± 1.5 Å²

DVNAAIAAIKTK [_DVNAAIAAIK(Crotonyl)TK_]
collision cross section [19]: 406.32 ± 0.28 Å²
collision cross section (charge state: 3, modification: Crotonyl): 463.44 ± 4.2 Å²

YEEIVKEVSTYIK [_YEEIVK(Acetyl (K))EVSTYIK_]
collision cross section [14]: 431.89 ± 3.1 Å²

ANEKTESSSAQQVAVSR [_ANEK(Methyl (K))TESSSAQQVAVSR_]
collision cross section [20]: 440.42 Å²
collision cross section [21]: 486.23 ± 1.8 Å²

FLQEFYQDDELGKK [_FLQEFYQDDELGK(GlyGly (K))K_]
collision cross section [22]: 460.97 ± 1.6 Å²
collision cross section [23]: 512.67 ± 1.3 Å²

LQDVSGQLSSSKK [_LQDVSGQLSSSK(Malonyl)K_]
collision cross section [24]: 397.79 ± 0.61 Å²

HHAAYVNNLNVTEEK [_HHAAY(Nitro (Y))VNNLNVTEEK_]
collision cross section [12]: 438.46 Å²
collision cross section (charge state: 3, modification: Nitro (Y)): 499.02 ± 3.6 Å²

VGEFSGANKEK [_VGEFSGANK(Gluratylation)EK_]
collision cross section [25]: 364.67 ± 0.089 Å²

PSVGSQSNQAGQGKR [_PSVGSQSNQAGQGK(Trimethyl (K))R_]
collision cross section [1]: 463.16 ± 1.5 Å²

AAQASDLEKIHLDEK [_AAQASDLEK(Malonyl)IHLDEK_]
collision cross section [24]: 460.56 ± 1.1 Å²
collision cross section [26]: 500.48 Å²

ITLSKHQNVQLPR [_ITLSK(Malonyl)HQNVQLPR_]
collision cross section [26]: 478.94 ± 1.8 Å²

STGLELETPSLVPVKK [_STGLELETPSLVPVK(Formyl)K_]
collision cross section (charge state: 2, modification: Formyl): 431.64 ± 1.2 Å²
collision cross section (charge state: 3, modification: Formyl): 516.5 ± 3 Å²

LLEEEDSKLK [_LLEEEDSK(Biotin)LK_]
collision cross section [5]: 405.12 ± 2.5 Å²

HLRGHGPQPPLR [_HLR(Methyl (R))GHGPQPPLR_]
collision cross section [27]: 492.6 ± 2.1 Å²

TVSKVDDFLANEAK [_TVSK(Methyl (K))VDDFLANEAK_]
collision cross section [20]: 413.26 ± 1.6 Å²
collision cross section [21]: 471.08 ± 3.6 Å²

GLATFPSRGAK [_GLATFPSR(Methyl (R))GAK_]
collision cross section (charge state: 2, modification: Methyl (R)): 371.86 ± 0.78 Å²
collision cross section [27]: 447 ± 3.2 Å²

VYIASSSGSTAIKK [_VYIASSSGSTAIK(Succinyl)K_]
collision cross section [4]: 413.08 ± 1.1 Å²
collision cross section [13]: 508.16 ± 1.6 Å²

GSHGQTPSPGALPLGR [_GS(HexNAc (ST))HGQTPSPGALPLGR_]
collision cross section [28]: 494.18 ± 4.8 Å²

ITESVAETAQTIKK [_ITESVAETAQTIK(Acetyl (K))K_]
collision cross section [14]: 418.11 ± 1.3 Å²
collision cross section [29]: 510.01 ± 1.7 Å²

DFDTALKHYDK [_DFDTALK(Gluratylation)HYDK_]
collision cross section [25]: 406.02 ± 0.63 Å²
collision cross section [30]: 469.01 ± 1.7 Å²

YTCSFCGK [_Y(Phospho (Y))TCSFCGK_]
collision cross section [6]: 336.46 ± 0.067 Å²

ASDTSSETVFGKR [_ASDTSSETVFGK(GlyGly (K))R_]
collision cross section [22]: 414.9 ± 1.4 Å²
collision cross section [23]: 487.28 ± 2 Å²

VPQAQPTKPALK [_VPQAQPT(HexNAc (ST))KPALK_]
collision cross section [31]: 409.35 ± 0.62 Å²
collision cross section [28]: 481.8 ± 0.17 Å²

DYNVTANSK [_DY(Nitro (Y))NVTANSK_]
collision cross section [12]: 334.81 ± 0.16 Å²

PASGAGAGAGAGKR [_PASGAGAGAGAGK(Succinyl)R_]
collision cross section [4]: 354.83 ± 0.23 Å²
collision cross section [13]: 462.42 ± 2 Å²

ALLQAKASGK [_ALLQAK(Methyl (K))ASGK_]
collision cross section [20]: 342.45 ± 0.79 Å²
collision cross section [21]: 423.28 ± 5 Å²

VLTANSNPSSPSAAKR [_VLTANSNPSSPSAAK(Acetyl (K))R_]
collision cross section [14]: 425 ± 2.5 Å²
collision cross section [29]: 527.55 ± 2.3 Å²

IPAASAAAMNLASAR [_IPAAS(HexNAc (ST))AAAMNLASAR_]
collision cross section [28]: 504.78 ± 1.3 Å²

ALLQAKASGK [_ALLQAK(Dimethyl (K))ASGK_]
collision cross section [7]: 351.53 ± 0.51 Å²

SNEEGSEEKGPEVR [_SNEEGSEEK(Propionyl)GPEVR_]
collision cross section [11]: 404.8 ± 1.3 Å²

IHVQSSSDSSDEPAEKR [_IHVQSSSDSSDEPAEK(Malonyl)R_]
collision cross section [24]: 452 ± 1.6 Å²
collision cross section [26]: 506.71 ± 1.6 Å²

VFSIISSEKELK [_VFSIISSEK(Dimethyl (K))ELK_]
collision cross section [7]: 416.15 ± 1.1 Å²
collision cross section [8]: 490.22 ± 1.2 Å²

VFIGNLNTLVVKK [_VFIGNLNTLVVK(Butyryl)K_]
collision cross section [2]: 414.54 ± 0.53 Å²
collision cross section [3]: 490.12 Å²

GSLGAQKLANTCFNEIEK [_GSLGAQK(Acetyl (K))LANTCFNEIEK_]
collision cross section [14]: 470.8 Å²

DKALPLEAEVAPVK [_DK(Propionyl)ALPLEAEVAPVK_]
collision cross section [11]: 410.19 Å²

GGGGGRGGLHDFR [_GGGGGR(Citrullination (R))GGLHDFR_]
collision cross section [15]: 380.63 ± 2.7 Å²
collision cross section [16]: 438.48 ± 1.8 Å²

ASAISIKLGSSK [_ASAISIK(Crotonyl)LGSSK_]
collision cross section [19]: 374.63 ± 0.89 Å²

SSFAYKDQNENR [_SSFAYK(Malonyl)DQNENR_]
collision cross section [24]: 401.56 ± 0.03 Å²

TLQKQSVVYGGK [_TLQK(Butyryl)QSVVYGGK_]
collision cross section [2]: 396.52 ± 0.85 Å²

LQDVSGQLSSSKK [_LQDVSGQLSSSK(Gluratylation)K_]
collision cross section [25]: 404.29 ± 0.99 Å²
collision cross section [30]: 482.96 ± 1.3 Å²

GRGVGSPEPGPTAPYLGR [_GR(Methyl (R))GVGSPEPGPTAPYLGR_]
collision cross section [27]: 520.34 ± 0.91 Å²

VLTANSNPSSPSAAKR [_VLTANSNPSSPSAAK(Dimethyl (K))R_]
collision cross section [7]: 441.07 ± 1.1 Å²
collision cross section [8]: 518.06 ± 0.76 Å²

VNIGQGSHPQKVK [_VNIGQGSHPQK(Dimethyl (K))VK_]
collision cross section [7]: 407.47 ± 1.1 Å²
collision cross section [8]: 469.28 Å²

ISEILLDHGAPIQAK [_IS(HexNAc (ST))EILLDHGAPIQAK_]
collision cross section [31]: 457.74 ± 0.56 Å²
collision cross section [28]: 559.32 ± 1.1 Å²

GERGVPGER [_GERGVP(Hydroxyproline)GER_]
collision cross section [18]: 328.27 ± 0.79 Å²
collision cross section [17]: 402.04 Å²

MTLSVLSR [_MTLS(HexNAc (ST))VLSR_]
collision cross section [31]: 352.44 ± 0.8 Å²

— the supplement of paper PMC10598134
